Measurements from PMC4595762, “Structural basis of Ornithine Decarboxylase inactivation and accelerated degradation by polyamine sensor Antizyme1” (Scientific Reports, 2015).

Biological target: T1, Ornithine decarboxylase (human, UniProt P11926 1-461)
T1 construct: Ornithine decarboxylase, Homo sapiens, full length; Cloned into pGEX-6p-1; The complex was purified and crystallised with the co-factor PLP (1 mM); One ODC monomer stands in the complex with cAZ1; also called ODC; human ODC; source: E. coli BL21 (DE3), purified (glutathione Sepharose 4B, PreScission cleavage, Superdex-200)
T1 sequence (looked up): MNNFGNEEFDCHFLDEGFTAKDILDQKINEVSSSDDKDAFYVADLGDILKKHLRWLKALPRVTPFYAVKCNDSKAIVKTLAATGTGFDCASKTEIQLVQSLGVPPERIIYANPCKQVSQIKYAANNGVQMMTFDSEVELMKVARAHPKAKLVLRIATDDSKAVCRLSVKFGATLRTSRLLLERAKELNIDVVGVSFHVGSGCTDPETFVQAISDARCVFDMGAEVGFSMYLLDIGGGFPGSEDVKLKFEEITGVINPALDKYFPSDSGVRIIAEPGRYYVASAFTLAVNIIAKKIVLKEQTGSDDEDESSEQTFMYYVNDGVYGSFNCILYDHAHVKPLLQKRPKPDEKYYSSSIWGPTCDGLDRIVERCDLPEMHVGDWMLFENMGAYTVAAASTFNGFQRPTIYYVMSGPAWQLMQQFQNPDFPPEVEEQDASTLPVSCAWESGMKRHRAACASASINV
Test: crystal structure; purified ODC and cAZ1 mixed on ice for 1 hour with cAZ1 in excess; complex purified on Superdex-200 in 20 mM Tris pH 8.5, 150 mM NaCl, 2 mM DTT, 1 mM PLP; hanging-drop crystals at 15 °C; 3.2 Å
Settings: both partners purified

binding result: binds
B1: N-terminally truncated Antizyme1 (residues 69-228) (domain or fragment)
chain: not shown
notes: Antizyme1 (AZ1), Homo sapiens, N-terminally truncated, residues 69-228; Cloned into pGEX-6p-1; also called cAZ1; AZ1; source: E. coli BL21 (DE3), purified (glutathione Sepharose 4B, PreScission cleavage, Superdex-200)
